Literature values as cited in patent US7776558B2, “Human G protein-coupled receptor and modulators thereof for the treatment of cell death-related disorders” (Arena Pharmaceuticals, Inc., priority 2003, dated 2010).

Columns and labels:
[1] = target: T1, FPRL2 on mature human dendritic cells (Homo sapiens, UniProt P25089); settings: Yang et al. 2002; cited from earlier work
T1 construct: host or cells: mature human dendritic cells
T1 sequence (P25089 1-353): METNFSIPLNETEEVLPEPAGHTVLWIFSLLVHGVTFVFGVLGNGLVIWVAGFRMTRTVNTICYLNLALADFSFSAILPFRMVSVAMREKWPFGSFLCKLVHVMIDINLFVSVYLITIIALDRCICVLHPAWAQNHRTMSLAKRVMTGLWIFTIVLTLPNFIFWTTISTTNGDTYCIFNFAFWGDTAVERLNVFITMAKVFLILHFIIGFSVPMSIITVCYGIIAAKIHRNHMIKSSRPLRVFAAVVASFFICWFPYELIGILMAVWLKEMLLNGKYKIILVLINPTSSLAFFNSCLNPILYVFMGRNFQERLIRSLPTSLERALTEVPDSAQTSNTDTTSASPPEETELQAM

[2] = target: T2, FPRL2 (Homo sapiens, UniProt P25089); settings: cited from earlier work
T2 sequence (P25089 1-353): T1 sequence (P25089 1-353)

Molecule | Binding to FPRL2 [1] | Intracellular Ca2+ [1] | Ligand status at FPRL2 [2]
WKYMVm | bind to FPRL2 on mature human dendritic cells | elicit an increase in intracellular Ca^2+ | –
CCCCC[C@H](O)/C=C/C=C\C=C\C=C\[C@@H](O)[C@@H](O)CCCC(=O)O [lipoxin A4] | – | – | shown not to be ligands for FPRL2
